Literature values, collected in publication PMC5413942.

Target: FhuA Ton box peptide Ton box (Escherichia coli) (UniProt P06971)

Chain of TonB (P02929 whole entry): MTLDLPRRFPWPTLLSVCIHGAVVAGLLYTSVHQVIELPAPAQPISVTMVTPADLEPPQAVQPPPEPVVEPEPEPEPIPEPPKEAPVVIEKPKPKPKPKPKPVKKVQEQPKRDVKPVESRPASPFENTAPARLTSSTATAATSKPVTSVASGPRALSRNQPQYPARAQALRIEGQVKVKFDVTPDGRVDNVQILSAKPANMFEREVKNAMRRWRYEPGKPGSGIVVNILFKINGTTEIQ

TonB (from UniProt P02929)
Kd: 36 µM
